Test results taken from the nanobody polyreactivity screen of Harvey et al. (2022).

assay: yeast display, Sf9 membrane polyspecificity reagent, FACS + sequencing; frameworks hold sequencing errors
Procedure, shortened: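 Galactose-induced (36–48 hours) yeast carrying a synthetic nanobody display library were exposed to 10% biotinylated, detergent-solubilized Sf9 membrane reagent at 4 °C for 1 hour. FACS followed streptavidin microbead enrichment, using low and high (top ~1%) gates for expression (anti-HA) and reagent binding (streptavidin). Colony PCR, MiSeq 2 × 250 sequencing and CDR-length filtering followed. Labels for polyreactivity reflect the gate of origin.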

| Sequence | polyreactivity (PSR sort gate) |
| --- | --- |
| QVQLVESGGGLVQAGGSLRLSCAASGSTFGYNAMGWYRQAPGKEREFVATIRYSGDRTYYADSVKGRFTISRDNAKNTVYLQMNSLKPEDTAVYYCAADLYYNSYGRYGRYYYWGQGTQVNVSS | high polyreactivity |
| QVQLVESGGGLVQAGGSLRLSCAASGSTFGYNAMGWYRQAPGKERELVAAISFSSGRTYYADSVKGRFTISRDNAKNTVYLQMNSLKPEDTAVYYCAALQYRRRPYGAVERYDYWGQGTQVTVSS | high polyreactivity |
| QVQLVESGGGLVQAGGSLRLSCAASGSTFGYNAMGWYRQAPGKERELVAAISSSGGSTYYADSVKGRFTISRDNAKNTVYLQMNSLKPEDTAVYYCATEFFQYYSTKGYDYWGQGTQVTVSS | low polyreactivity |
| QVQLVESGGGLVQAGGSLRLSCAASGSTFGYNAMGWYRQAPGKERELVAAITRSGGSTDYADSVKGRFTISRDNAKNTVYLQMNSLKPEDTAVYYCAADGDHPWWSQYDYWGQGTQVTVSS | low polyreactivity |
| QVQLVESGGGLVQAGGSLRLSCAASGSTFGYNARGWYRQAPGKEREFVARIRSSGSTTYADSVKGRFTISRDNAKNTVYLQMNSLKPEDTAVYYCAARRLYGYSPWVRFGSYDYWGQGTQVTVSS | high polyreactivity |
| QVQLVESGGGLVQAGGSLRLSCAASGSTFGYNDMGRYRQAPGKERELVADSSYSGDSTYSADSVKGRFTISRDNAQNTVYLQMNSLKPEDTAVYYCKADRFADYDDWGQGTQVTVSS | low polyreactivity |
| QVQLVESGGGLVQAGGSLRLSCAASGSTFGYNDMGWYRQAPGKERELVAAIDTGVSTNYADSVKGRFTISRDNAKNTVYLQMNSLKPEDTAVYYCAKSGSAYWHSGWSVGFDYWGQGTQVTVSS | low polyreactivity |
| QVQLVESGGGLVQAGGSLRLSCAASGSTFGYYAMGCYRQAPGKERELVAAITSGGSTKYADSVKGRFTISRDNAKNTVYLQMNSLKPEDTAVYYCATSRYFGYGFWGQGTQVTVSS | low polyreactivity |
| QVQLVESGGGLVQAGGSLRLSCAASGSTFGYYAMGWSRQAPGKERELVAVITYSGGSTYYADSVKGRFTISRDNAKNTVYLQMNSLKPEDTAVYYCAAVIGVWYYYTYDYWGQGTQVTVSS | low polyreactivity |
| QVQLVESGGGLVQAGGSLRLSCAASGSTFGYYAMGWYRQAPGKERELVAAISYSGGSTYYADSVKGRFTISRDNAKNTVYLQMNSLKPAVTAVYYCAARFTRQMYYWGQGTQVTVSS | high polyreactivity |
| QVQLVESGGGLVQAGGSLRLSCAASGSTFGYYAMGWYRQAPGKERELVAAITDSGGITHYADSVKGRFTISRDNAKNTVYLQMNSLKPEDTAVYYCYARYLGYGWFDYWGQGTQVTVSS | low polyreactivity |
| QVQLVESGGGLVQAGGSLRLSCAASGSTFGYYAMGWYRQAPGKERELVAAITIRGDGTYYADSVKGRFTISRDNAKNTVYLQMNSLIPEDTAVYYCAAEDWLWFDYWGQGTQVTVSS | high polyreactivity |
| QVQLVESGGGLVQAGGSLRLSCAASGSTFGYYARLWYRQAPGKERDLVAAISYSGGSTYYADSVKGRFTISRDNAKNTVYLQMNSLKPEDTAVYYCAARFTRQMYYWGQGTQVTVSS | high polyreactivity |
| QVQLVESGGGLVQAGGSLRLSCAASGSTFGYYGMGWYRQAPGKERELLAAISTGGRTNYADSVKGRFTISRDNAKNTVYLQMNSLKPEDTAVYYCAADFLSPAYRPSWYRFDYWGQGTQVTVSS | low polyreactivity |
| QVQLVESGGGLVQAGGSLRLSCAASGSTFGYYTMGRYRQAPGKERELVAAITWSGGTTYYAESVKGRFTISRDNAKNPVYLQMNSLKPEDTAVYYCATRPWYYASPRTRFGSWGQGTQVTVSS | high polyreactivity |
| QVQLVESGGGLVQAGGSLRLSCAASGSTFGYYTMGWYRQAPGKERELVAAISWGGGSTYYADSVKGRFTISRDNAKNTVYFQMNSLIPEDTAVYYCARTPVTSYKDDFYYWGQGTQVTVSS | low polyreactivity |
| QVQLVESGGGLVQAGGSLRLSCAASGSTFGYYTMGWYRQAPGKERELVAAITWSGGSTYYADSVKGRFTISRDNAKNSVYLQINSLKPEDSSVYYCAADDYWTPFGYWGQGTQVTVSS | low polyreactivity |
| QVQLVESGGGLVQAGGSLRLSCAASGSTFHDYAMGLYRQAPGKERELVAAISNSGGSTYYADSVKGRFTISRDNAKNTVYLQMNSLKPEDTAVYYCAARKYVAGHKYIMNYWGQGTQVTVSS | low polyreactivity |
| QVQLVESGGGLVQAGGSLRLSCAASGSTFHGNAMGWYRQAPGKERELVAAISRSGGSTYYADSVKGRFTISRDNAKNTVYLQMNSLKPEDTAVYYCAADRPYYPLKYDYWGQGTQVTVSS | high polyreactivity |
| QVQLVESGGGLVQAGGSLRLSCAASGSTFHKYVMGWYRQAPGKEREFVAAISRRGTRTYYADSVKGRFTISRDNAKNTVYLQMNSLKPEDTAVYYCNVYYYRTYTHFLPGYEYWGQGTQVTVSS | high polyreactivity |
| QVQLVESGGGLVQAGGSLRLSCAASGSTFHLYAMGWYRKAPGKEREFVAAIRGRGGNTYADSVKGRFTISRDNAKNTVYLQMNSLKPEDTAVYYCAAPLLRDLRSPYSYNYWGQGTQVTVSS | low polyreactivity |
| QVQLVESGGGLVQAGGSLRLSCAASGSTFHLYAMGWYRQAPGKETEFVPAIRGRGGNTYADSVKGRFTISRDNAKNTVYLQMNSLKPEDTAVYYCAAPLLRDLRSPYSYNYWGQGTQVTVSS | low polyreactivity |

| Sequence | polyreactivity (PSR sort gate) |
| --- | --- |
| QVQLVESGGGLVQAGGSLRLSCAASGSTFHLYAMGWYRQAPGKETEIVAAIRGRGGNTYADSVKGRFTISRDNAKHTVYFQMNSLKPEDTAVSYCATSISEYQDFTRYDYWGQGTQVTVSS | low polyreactivity |
| QVQLVESGGGLVQAGGSLRLSCAASGSTFHNYAMGWYRQAPGKERELVAGISVRGGGTYYADSVKGRFTISRDNAKNTVYLQMNSLKPEDTAVYYCAPDFYWFWTYGTLWYGYEYWGQGTQVTVSS | high polyreactivity |
| QVQLVESGGGLVQAGGSLRLSCAASGSTFHPNAMGWCRQAPRKQRELFAAITWSTSVTYYADSVKGRFTISRDNAKNTVFLQMISLKPEDSAVYYCNAGYMLDSFRYDHWGQCTQVTVSS | low polyreactivity |
| QVQLVESGGGLVQAGGSLRLSCAASGSTFHPYAMGWYRQPPGKASELVAAINWRVGSTYYADSVKGRFTISRDNAKNTVYLQMTSQIPEDTAVYYCAVSYMATLGRSRYDYWGQGTQVTVSS | low polyreactivity |
| QVQLVESGGGLVQAGGSLRLSCAASGSTFHRNAMGWYRQAPGKERELVAAITSGGSTNYADSVKGRFKISRDNAKNTVYLQMNSLKPEDTAVYYCAADEVWGRDLGEYWGQGTQVTVSS | low polyreactivity |
| QVQLVESGGGLVQAGGSLRLSCAASGSTFHRYAMGWYRQAPGKERELVAAITSSGDITYYADSVKGRFTISRDNAKNTVYLQMNSLKPEDTAVYYCNADGFYSWLYDYWGQGTQVTVSS | low polyreactivity |
| QVQLVESGGGLVQAGGSLRLSCAASGSTFHRYTMGWYRQAPGKERELLAAISWSGGSTYYADSVKGRFTISRDNAKNTVYLQMNSLKPEDTAVYYSNKVTVYRFRGDSWGQGTQVTVSS | high polyreactivity |
| QVQLVESGGGLVQAGGSLRLSCAASGSTFHRYTMGWYRQAPGKERELVAAISSGGRTYYADSVKGRFTISRDNAKNTVYLQMNSLKPEDTAVYYCNSRYPRQYWGGYDYWGQGTQVTVSS | high polyreactivity |
| QVQLVESGGGLVQAGGSLRLSCAASGSTFHWYAMGWYRQAPGKERELVAAITSGGSTYYADSVKGRFTISRDNAKNTVYLQMNSLKPEDTAVYYCNADRVDSFFDGPSRGYDYWGQGTQVTVSS | low polyreactivity |
| QVQLVESGGGLVQAGGSLRLSCAASGSTFHYAMGWYRPAPGKERELVAAITYGGGRTFYADSVKGRFTISRDNAKNTVYLQMNSLKPEDTAVYYCAKVVYYYGRGWTDYRSTMDSWGQGTQVTVSS | low polyreactivity |
| QVQLVESGGGLVQAGGSLRLSCAASGSTFHYYAMGWYRQAPGKERELVAAISKRGGSTYYADSVKGRFTISRDNAKNNVYLQMNSLKPEDTSVYYCAKTWVSYSRYHYEYWGQGTQVTVSS | high polyreactivity |
| QVQLVESGGGLVQAGGSLRLSCAASGSTFHYYAMGWYRQAPGKERELVAAISKSGGITYYADSVKGRFTISRDNAKNTVSLQMNSLKPEDTAVYYCNAYSASGYDYWGQGTQVTVSS | high polyreactivity |
| QVQLVESGGGLVQAGGSLRLSCAASGSTFIAYALGWYRQAPGKERELDAAITTGDSTNYADSVKGRFTISRDNAKNTVYLQMNSLKPEDTAVYYCNADGTDFHFLSEIGSSQEGDYWGQGTQVTVSS | low polyreactivity |
| QVQLVESGGGLVQAGGSLRLSCAASGSTFIDNTMGWYRQAPGKERELVASIRRSGGSTYYADSVKGRFTISRDNAKNTVYLQMNSLKPEDTAVYYCDVATRYHTTFWYYYWGQGTQVTVSS | high polyreactivity |
| QVQLVESGGGLVQAGGSLRLSCAASGSTFIEYAMGWYRQAPGTERELVAGITTSSGRTSYADSVKGRFSISRDNAKNTVYLQMNSLKPEDTAVYYCAADIYYYSPYDSFWYSEVDYWGQGTQVTVSS | low polyreactivity |
| QVQLVESGGGLVQAGGSLRLSCAASGSTFIFNTMGWYRQAPGKEREVVASITGDGRTNYADSVKGRFTISRDNAKNTVYLQMNSLKPEDTAVYYCAADGYDQYPLWAPPGDYWGQGTQVTVSS | low polyreactivity |
| QVQLVESGGGLVQAGGSLRLSCAASGSTFIFYAMGWYRQAPGKERELVASITSRAASTYYADSVKGRFTFSRDNAKNTVYFQMNSLKPEVTAVYYCAANFSYTLFWWSSFLLYVYWGQGTQVTVSS | low polyreactivity |
| QVQLVESGGGLVQAGGSLRLSCAASGSTFIFYTMGWYRQAPGKERELVAAITSNGGSTYYADSVKGRFTISRDNAKNTVYLQMNSLKPEDTAVYYCARVDRWRRYRYIFSGYDYWGQGTQVTVSS | high polyreactivity |
| QVQLVESGGGLVQAGGSLRLSCAASGSTFIGYAMGWYRQAPGKERELVAGIRWSGGRTYYADSVKGRFTISRDNAKNTVYLHMNSLKPEDTAVYYCNARFYASAKGYDYWGQGTQVTVSS | low polyreactivity |
| QVQLVESGGGLVQAGGSLRLSCAASGSTFIGYAMGWYRQAPGKERELVASISWGGGSTYYADSVKGRFTISRDNAKNTVYLQQNSLIPEDTAVYYCNTYYWFSGCPYDYWGQGTQVTVSS | low polyreactivity |
| QVQLVESGGGLVQAGGSLRLSCAASGSTFIGYTMGWYRQAPGKERELVAAISTSGARTYYADSVKGRFTISRDNAKNTVYLQMNSLKPEDTAVYYCAARAIYKSKYDYWGQGTQVTVSS | high polyreactivity |
